For assay [1], the target named is SIY/H-2 K^b complex (mouse) (UniProt P01901). The assay is described as follows: flow cytometry on peptide-loaded T2 K^b cells. In general terms: A flow cytometer gives signals particle by particle.
In assay [2] the target is SIY/H-2 K^bm3 complex. In words: flow cytometry on peptide-loaded T2 K^bm3 cells.
The target of assay [3] is QL9/H-2 L^d complex (mouse) (UniProt P01897). In words: direct flow cytometry on peptide-loaded L^d cells.
Assay [4] concerns the target SL9/H-2 L^d complex (mouse) (UniProt P01897). In words: direct flow cytometry on peptide-loaded RMA-S L^d cells.
Assay [5] concerns the target pVSV/H-2 K^b complex (mouse) (UniProt P01901). In words: flow cytometry on T2 K^b cells, control peptide (background).
Assay [6] addresses unloaded H-2 L^d molecules on RMA-S L^d cells (mouse) (UniProt P01897). The assay is described as follows: direct flow cytometry on RMA-S L^d cells, unloaded (background).
Assay [7] concerns the target H-2 L^d loaded with an irrelevant H-2 L^d binding peptide (mouse) (UniProt P01897). In words: direct flow cytometry on RMA-S L^d cells, irrelevant peptide (background).
Assay [8] has as its target p2Ca/H-2 L^d complex (mouse) (UniProt P01897). The assay is described as follows: flow cytometry on L^d cells loaded with graded peptide concentrations; highest value.
In assay [9] the target is QL9/H-2 L^d complex (mouse) (UniProt P01897). The assay is described as follows: flow cytometry, serial dilutions on QL9-loaded RMA-S L^d cells, detected with H57-FITC.
The target of assay [10] is p2Ca/H-2 L^d complex (mouse) (UniProt P01897). In words: flow cytometry, serial dilutions on p2Ca-loaded RMA-S L^d cells, detected with H57-FITC.
Assay [11] shares this target. In words: flow cytometry competition with constant FITC-30.5.7 Fab on peptide-loaded RMA-S L^d cells.
Assay [12] has as its target TCR of 5KC, a moth cytochrome C (MCC)-specific, I-E^k-restricted T cell hybridoma. In words: cell-based or functional assay.
The target is the same in assay [13]. In words: flow cytometry on 5KC hybridoma cells.
The target is the same in assay [14]. The assay is described as follows: flow cytometry on 5KC hybridoma cells; reference cells without primary reagent.
In assay [15] the target is SIY/H-2 K^b complex (mouse) (UniProt P01901). The assay is described as follows: cell-based or functional assay.
The target in assay [16] is SIY/H-2 K^bm3 complex. In words: cell-based or functional assay.
For assay [17], the target named is dEV-8/H-2 K^bm3 complex. In words: cell-based or functional assay.
The target of assay [18] is p2Ca/H-2 L^d complex (mouse) (UniProt P01897). The assay is described as follows: cell-based or functional assay.
The target is the same in assay [19]. In words: flow cytometry competition with FITC-30.5.7 Fab on peptide-loaded RMA-S L^d cells.
Assay [20] has as its target serologically reactive H-2 L^d on RENCA cells (mouse) (UniProt P01897). In words: flow cytometry on unstimulated RENCA cells.
Assay [21] concerns the target unloaded H-2 L^d molecules on RMA-S L^d cells (mouse) (UniProt P01897). In words: direct flow cytometry on RMA-S L^d cells without peptide.
The target in assay [22] is serologically reactive H-2 L^d on RENCA cells (mouse) (UniProt P01897). The assay is described as follows: flow cytometry on RENCA cells stimulated with 5-50 units/ml γ-IFN.
Assay [23] concerns the target QL9/H-2 L^d complex (mouse) (UniProt P01897). In words: flow cytometry on L^d cells loaded with graded peptide concentrations; highest value.

By Kd is commonly meant a measure of binding affinity in units of concentration. A higher Kd goes with lower affinity.

Values joined by “and” are separate entries in the source; they are usually repeats but may differ in a detail not shown here. Identical values can stand only once.

Chain of p2Ca/H-2 L^d complex (mouse) (P01897 25-309, one chain of several): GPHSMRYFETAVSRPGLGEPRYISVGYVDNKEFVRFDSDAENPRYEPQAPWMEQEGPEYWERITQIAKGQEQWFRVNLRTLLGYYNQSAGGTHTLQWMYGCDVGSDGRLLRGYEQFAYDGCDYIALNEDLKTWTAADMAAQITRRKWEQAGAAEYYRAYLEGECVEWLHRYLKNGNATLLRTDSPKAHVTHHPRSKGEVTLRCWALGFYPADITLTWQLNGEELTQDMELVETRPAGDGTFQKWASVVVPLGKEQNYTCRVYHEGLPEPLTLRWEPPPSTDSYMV
Chain of QL9/H-2 L^d complex (mouse) (P01897 25-309, one chain of several): as above
Chain of serologically reactive H-2 L^d on RENCA cells (mouse) (P01897 25-362): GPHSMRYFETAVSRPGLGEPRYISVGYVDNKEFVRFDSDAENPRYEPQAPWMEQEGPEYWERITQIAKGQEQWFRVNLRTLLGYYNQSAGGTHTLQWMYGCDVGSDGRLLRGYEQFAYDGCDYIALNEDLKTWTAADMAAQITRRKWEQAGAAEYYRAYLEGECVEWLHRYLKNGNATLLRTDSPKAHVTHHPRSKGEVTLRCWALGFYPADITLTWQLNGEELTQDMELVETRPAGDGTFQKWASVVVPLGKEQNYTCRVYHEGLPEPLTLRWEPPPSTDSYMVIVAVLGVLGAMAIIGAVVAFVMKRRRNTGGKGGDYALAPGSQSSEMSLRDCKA
Chain of 2C TCR on 2C CTL (A2KF29 whole entry): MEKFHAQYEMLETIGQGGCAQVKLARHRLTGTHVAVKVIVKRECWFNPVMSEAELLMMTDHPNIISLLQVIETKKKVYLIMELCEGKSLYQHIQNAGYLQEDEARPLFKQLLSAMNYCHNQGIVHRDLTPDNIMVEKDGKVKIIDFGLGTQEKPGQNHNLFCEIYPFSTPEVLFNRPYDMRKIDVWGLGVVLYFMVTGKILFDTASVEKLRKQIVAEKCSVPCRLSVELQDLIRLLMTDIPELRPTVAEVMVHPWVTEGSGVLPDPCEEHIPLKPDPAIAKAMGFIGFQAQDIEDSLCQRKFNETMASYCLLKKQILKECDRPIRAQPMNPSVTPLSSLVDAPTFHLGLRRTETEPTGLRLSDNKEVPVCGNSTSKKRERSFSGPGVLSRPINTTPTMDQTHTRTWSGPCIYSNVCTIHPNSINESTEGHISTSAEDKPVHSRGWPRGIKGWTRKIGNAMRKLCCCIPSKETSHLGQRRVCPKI
Chain of SIY/H-2 K^b complex (mouse) (P01901 22-369, one chain of several): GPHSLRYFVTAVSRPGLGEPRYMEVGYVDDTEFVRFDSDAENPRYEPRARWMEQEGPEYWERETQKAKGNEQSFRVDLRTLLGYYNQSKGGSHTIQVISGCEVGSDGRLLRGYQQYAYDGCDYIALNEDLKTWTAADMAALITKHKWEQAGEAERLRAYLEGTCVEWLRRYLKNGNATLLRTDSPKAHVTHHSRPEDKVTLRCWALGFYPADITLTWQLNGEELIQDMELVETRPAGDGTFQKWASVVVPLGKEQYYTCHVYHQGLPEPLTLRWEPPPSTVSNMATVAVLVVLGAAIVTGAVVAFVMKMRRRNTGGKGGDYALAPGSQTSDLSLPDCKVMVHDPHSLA
Chain of unloaded H-2 L^d molecules on RMA-S L^d cells (mouse) (P01897 25-309): as the sequence (P01897 25-309, one chain of several) above
Chain of pVSV/H-2 K^b complex (mouse) (P01901 22-369, one chain of several): as the sequence (P01901 22-369, one chain of several) above
Chain of H-2 L^d loaded with an irrelevant H-2 L^d binding peptide (mouse) (P01897 25-309): as the sequence (P01897 25-309, one chain of several) above
Chain of SL9/H-2 L^d complex (mouse) (P01897 25-309, one chain of several): as above

With “soluble divalent 2C TCR/Ig (from UniProt A2KF29)”, the MCF came to 276 MCF in [1]; 36 MCF in assay [2]; 3000 MCF in assay [3]; 100 MCF in [4]; 14 MCF in assay [5]; 10 MCF in assay [6]. For the same substance, the MCF in [7] came to 10 MCF; in assay [8], 600 MCF. In addition, in [9], the lowest concentration at which binding was detected was less than 1 nM. This substance yielded a concentration required to detect binding in assay [10] of 3 nM. Moreover, in [11], the Kapp amounted to 108 nM.
In turn, “soluble divalent ^MCCI-E^k/IgG (peptide-MHC)” gave an IL-2 production, fold stimulation over anti-CD3 mAb at 92 ng/ml in [12] of 10 fold. In assay [13], this substance had a lowest concentration at which specific staining was seen of 5 nM and a mean channel fluorescence of 300 MCF. In addition, in assay [14], the fold increase of mean channel fluorescence is 15 fold.
As for 2C TCR on 2C CTL (from UniProt A2KF29), the 2C CTL mediated lysis, LD50 (peptide concentration) is 10 ng/mL in assay [15]; 100 ng/mL in assay [16]; 0.5 ng/mL and 1 ng/mL in assay [17]. Further, in assay [18], the 2C CTL mediated lysis of p2Ca-loaded T2 L^d cells, LD50 (peptide concentration) came out at 0.5 ng/mL.
The substance “soluble monovalent 2C TCR (from UniProt A2KF29)” returned a Kd in [19] of more than 2000 nM. The concentration required to detect binding in [9] was more than 100 nM; in assay [10], more than 3000 nM. Further, the Kapp in assay [11] is more than 2000 nM.
For mAb 30.5.7 (antibody), the MCF in assay [20] is 500 MCF; in assay [22], 2670 to 3040 MCF; in assay [23], 3000 MCF; in [8], 3000 MCF. For the same substance, the fold increase of mean channel fluorescence, cells at 27° C. against 37° C. in assay [21] was 5 fold.

The values are drawn from patent publication US20120141482A1.
